The target in the test is Factor IXa (Homo sapiens, UniProt P00740). In words: FXa generation assay.
Factor IXa, sequence (P00740 47-191): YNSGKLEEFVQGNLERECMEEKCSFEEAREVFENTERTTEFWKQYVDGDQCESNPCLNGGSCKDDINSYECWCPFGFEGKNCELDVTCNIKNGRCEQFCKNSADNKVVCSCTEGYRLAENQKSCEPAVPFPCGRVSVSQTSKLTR

B1: BDD rFVIIIa (ReFacto) (protein)
chain 1: ATRRYYLGAVELSWDYMQSDLGELPVDARFPPRVPKSFPFNTSVVYKKTLFVEFTDHLFNIAKPRPPWMGLLGPTIQAEVYDTVVITLKNMASHPVSLHAVGVSYWKASEGAEYDDQTSQREKEDDKVFPGGSHTYVWQVLKENGPMASDPLCLTYSYLSHVDLVKDLNSGLIGALLVCREGSLAKEKTQTLHKFILLFAVFDEGKSWHSETKNSLMQDRDAASARAWPKMHTVNGYVNRSLPGLIGCHRKSVYWHVIGMGTTPEVHSIFLEGHTFLVRNHRQASLEISPITFLTAQTLLMDLGQFLLFCHISSHQHDGMEAYVKVDSCPEEPQLRMKNNEEAEDYDDDLTDSEMDVVRFDDDNSPSFIQIRSVAKKHPKTWVHYIAAEEEDWDYAPLVLAPDDRSYKSQYLNNGPQRIGRKYKKVRFMAYTDETFKTREAIQHESGILGPLLYGEVGDTLLIIFKNQASRPYNIYPHGITDVRPLYSRRLPKGVKHLKDFPILPGEIFKYKWTVTVEDGPTKSDPRCLTRYYSSFVNMERDLASGLIGPLLICYKESVDQRGNQIMSDKRNVILFSVFDENRSWYLTENIQRFLPNPAGVQLEDPEFQASNIMHSINGYVFDSLQLSVCLHEVAYWYILSIGAQTDFLSVFFSGYTFKHKMVYEDTLTLFPFSGETVFMSMENPGLWILGCHNSDFRNRGMTALLKVSSCDKNTGDYYEDSYEDISAYLLSKNNAIEPR
chain 2: SFQKKTRHYFIAAVERLWDYGMSSSPHVLRNRAQSGSVPQFKKVVFQEFTDGSFTQPLYRGELNEHLGLLGPYIRAEVEDNIMVTFRNQASRPYSFYSSLISYEEDQRQGAEPRKNFVKPNETKTYFWKVQHHMAPTKDEFDCKAWAYFSDVDLEKDVHSGLIGPLLVCHTNTLNPAHGRQVTVQEFALFFTIFDETKSWYFTENMERNCRAPCNIQMEDPTFKENYRFHAINGYIMDTLPGLVMAQDQRIRWYLLSMGSNENIHSIHFSGHVFTVRKKEEYKMALYNLYPGVFETVEMLPSKAGIWRVECLIGEHLHAGMSTLFLVYSNKCQTPLGMASGHIRDFQITASGQYGQWAPKLARLHYSGSINAWSTKEPFSWIKVDLLAPMIIHGIKTQGARQKFSSLYISQFIIMYSLDGKKWQTYRGNSTGTLMVFFGNVDSSGIKHNIFNPPIIARYIRLHPTHYSIRSTLRMELMGCDLNSCSMPLGMESKAISDAQITASSYFTNMFATWSPSKARLHLQGRSNAWRPQVNNPKEWLQVDFQKTMKVTGVTTQGVKSLLTSMYVKEFLISSSQDGHQWTLFFQNGKVKVFQGNQDSFTPVVNSLDPPLLTRYLRIHPQSWVHQIALRMEVLGCEAQDLY
modifications: B-domain deleted, thrombin-activated
A word on the Kd: it is the equilibrium constant for the complex coming apart. B1 gave a Kd of 4.5 nM. That is a single-digit nanomolar value.

B2: rFVIIIFc (thrombin-activated) (protein)
chain 1: B1 chain 1
chain 2: B1 chain 2
modifications: Fc fusion, thrombin-activated
On to B2, for which binding was put at a Kd of 5.5 nM.

B3: SC rFVIIIFc (thrombin-activated) (protein)
chain 1: B1 chain 1
chain 2: B1 chain 2
modifications: single-chain Fc fusion, thrombin-activated
B3 yielded a Kd of 4.1 nM. This Kd and that of the molecule before are within 1.5-fold of each other.

The values are drawn from publication PMC4240654 (2014).
